Results as given in patent US5952463.

Legend:
[1] = target: Chymotrypsin
[2] = target: Subtilisin
[3] = target: Thermolysin
[4] = target: Trypsin
[5] = target: Chymotrypsin; remark: listed apart in the source
[6] = target: Pepsin
[7] = target: Subtilisin; remark: listed apart in the source
[8] = target: Thermolysin; remark: listed apart in the source
[9] = target: Trypsin; remark: listed apart in the source
[10] = target: purified secretion-type Kex2 proteinase (sKEX2 product, Saccharomyces yeast) (Saccharomyces yeast) (UniProt P13134); parameters: unit not given beside the values

Inhibition Ratio (%), casein Folin method [1]: -19%
Inhibition Ratio (%), casein Folin method [2]: 87%
Inhibition Ratio (%), casein Folin method [3]: -5.5%
Inhibition Ratio (%), casein Folin method [4]: 2.4%
Inhibition Ratio (%), synthetic fluorescent substrate Suc-Ala-Ala-Pro-Phe-MCA, enzyme at 1/10 molar ratio to 0.5 µg of Kexstatin [5]: 0%
Inhibition Ratio (%), casein Folin method, enzyme at 1/10 molar ratio to 0.5 µg of Kexstatin [6]: 0%
Inhibition Ratio (%), synthetic fluorescent substrate Suc-Ala-Ala-Pro-Phe-MCA, enzyme at 1/10 molar ratio to 0.5 µg of Kexstatin [7]: 99.5%
Inhibition Ratio (%), casein Folin method, enzyme at 1/10 molar ratio to 0.5 µg of Kexstatin [8]: 8%
Inhibition Ratio (%), synthetic fluorescent substrate Bz-Arg-MCA, enzyme at 1/10 molar ratio to 0.5 µg of Kexstatin [9]: 49.2%
IC50 (amount of Kexstatin which inhibits the activity of 1 µg of Kex2 proteinase by 50%) (µg (per 1 µg of Kex2 proteinase)) [10]: 1.4
B1: Kexstatin (proteinase inhibitor purified from the culture fluid of Streptomyces platensis Q268) (protein)
chain: GLYAPTELVLTVGQGESRATATVQRAVTLSCMPGARGSHPNPLGACTQLRAVAGDFNAITAATSDRLCTKEWNPLVVTADGVWQGKRVSYSYTFANRCEMNIDSDTVFNF
